From the supplement of paper PMC9112550, “Optimization of the antimicrobial peptide Bac7 by deep mutational scanning” (BMC Biology, 2022) come the findings set out here.

The subject of this data set is Escherichia coli TOP10. Briefly: shrunken log2 fold change of peptide-encoding DNA abundance (4.5 h post-induction vs induction); higher = less antimicrobial activity (less host growth inhibition). The following applies: time post-induction: 4.5 h; library: site-saturation at positions 5, 18, 19, 20.
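Note: peptides expressed intracellularly from a pBAD plasmid library in pooled LB shake-flask culture, induced with 0.3% L-arabinose, DNA abundance read by NGS, three biological replicates, DESeq2 with apeglm shrinkage.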

Take RRIRIRPPRLPRPRPRPCCYPRP: the “shrunken log2 fold change” value is -0.495.

RRIRFRPPRLPRPRPRPSWMPRP: the “shrunken log2 fold change” value is -0.0113.

On to RRIRARPPRLPRPRPRPIGTPRP, for which the “shrunken log2 fold change” value turned out to be 0.0903.

With RRIRIRPPRLPRPRPRPRPRPRP, the “shrunken log2 fold change” value was determined as 0.472.

In the case of RRIRYRPPRLPRPRPRPQVLPRP, the “shrunken log2 fold change” value is -0.725.

In the case of RRIRWRPPRLPRPRPRPNHDPRP, the “shrunken log2 fold change” value is -0.193.

For RRIRYRPPRLPRPRPRPFDKPRP, the “shrunken log2 fold change” value was -0.0924.

For RRIRERPPRLPRPRPRPTMHPRP, the “shrunken log2 fold change” value is -0.229.

Turning to RRIRKRPPRLPRPRPRPEWKPRP, the “shrunken log2 fold change” value was determined as 0.0315.

Regarding RRIRIRPPRLPRPRPRPCNTPRP, the “shrunken log2 fold change” value was -0.0252.

RRIRPRPPRLPRPRPRPLLDPRP: the “shrunken log2 fold change” value was determined as 0.0537.

Take RRIRCRPPRLPRPRPRPQIDPRP: the “shrunken log2 fold change” value is -0.0788.

Turning to RRIRCRPPRLPRPRPRPFCIPRP, the “shrunken log2 fold change” value was -0.571.

With RRIRARPPRLPRPRPRPAHTPRP, the “shrunken log2 fold change” value worked out at 0.544.

As to RRIRRRPPRLPRPRPRPMEGPRP, the “shrunken log2 fold change” value came to 0.0518.

As for RRIRGRPPRLPRPRPRPDHSPRP, the “shrunken log2 fold change” value is -0.0179.

In the case of RRIRSRPPRLPRPRPRPWKIPRP, the “shrunken log2 fold change” value was -0.0842.

On to RRIRIRPPRLPRPRPRPNHMPRP, for which the “shrunken log2 fold change” value was -0.361.

As to RRIRCRPPRLPRPRPRPHHRPRP, the “shrunken log2 fold change” value was -0.266.

Consider RRIRKRPPRLPRPRPRPVIQPRP, for which the “shrunken log2 fold change” value is -0.0501.

On to RRIRKRPPRLPRPRPRPHGHPRP, for which the “shrunken log2 fold change” value is -0.248.

On to RRIRLRPPRLPRPRPRPMFLPRP, for which the “shrunken log2 fold change” value was -0.0362.

Take RRIRRRPPRLPRPRPRPWPLPRP: the “shrunken log2 fold change” value came out at 0.468.

In the case of RRIRRRPPRLPRPRPRPLGPPRP, the “shrunken log2 fold change” value was 0.304.

Regarding RRIRQRPPRLPRPRPRPPGEPRP, the “shrunken log2 fold change” value worked out at 0.119.

For RRIRVRPPRLPRPRPRPEFPPRP, the “shrunken log2 fold change” value was -0.081.

Consider RRIRPRPPRLPRPRPRPRYVPRP, for which the “shrunken log2 fold change” value is -0.24.

As to RRIRFRPPRLPRPRPRPLPGPRP, the “shrunken log2 fold change” value was determined as 0.403.

As for RRIRIRPPRLPRPRPRPTCPPRP, the “shrunken log2 fold change” value is 0.00857.

As to RRIRERPPRLPRPRPRPYSYPRP, the “shrunken log2 fold change” value was -0.0155.

In the case of RRIRCRPPRLPRPRPRPADYPRP, the “shrunken log2 fold change” value is -0.263.

RRIRWRPPRLPRPRPRPFTVPRP: the “shrunken log2 fold change” value is -0.512.

Take RRIRNRPPRLPRPRPRPQANPRP: the “shrunken log2 fold change” value was determined as 0.202.

For RRIRMRPPRLPRPRPRPMCCPRP, the “shrunken log2 fold change” value came out at 0.207.

Consider RRIRERPPRLPRPRPRPGHNPRP, for which the “shrunken log2 fold change” value was -0.115.

For the sequence RRIRHRPPRLPRPRPRPHPHPRP, the “shrunken log2 fold change” value was -0.19.

Consider RRIRMRPPRLPRPRPRPCDDPRP, for which the “shrunken log2 fold change” value came out at 0.553.

On to RRIRNRPPRLPRPRPRPNHHPRP, for which the “shrunken log2 fold change” value is -0.701.

In the case of RRIRERPPRLPRPRPRPRIMPRP, the “shrunken log2 fold change” value is -0.712.

In the case of RRIRCRPPRLPRPRPRPYYHPRP, the “shrunken log2 fold change” value is -1.28.

Turning to RRIRRRPPRLPRPRPRPPLDPRP, the “shrunken log2 fold change” value is 1.24.

As for RRIRFRPPRLPRPRPRPPYIPRP, the “shrunken log2 fold change” value was -0.282.

Take RRIRGRPPRLPRPRPRPLADPRP: the “shrunken log2 fold change” value came to 1.68.

For the sequence RRIRRRPPRLPRPRPRPMCNPRP, the “shrunken log2 fold change” value turned out to be 0.0275.

Turning to RRIRIRPPRLPRPRPRPWVTPRP, the “shrunken log2 fold change” value is -0.0476.

For RRIRSRPPRLPRPRPRPYGWPRP, the “shrunken log2 fold change” value amounted to 0.328.

As for RRIRERPPRLPRPRPRPTINPRP, the “shrunken log2 fold change” value is -0.399.

Turning to RRIRNRPPRLPRPRPRPFVCPRP, the “shrunken log2 fold change” value is -0.45.

For the sequence RRIRCRPPRLPRPRPRPICGPRP, the “shrunken log2 fold change” value worked out at 0.289.

Consider RRIRWRPPRLPRPRPRPVVCPRP, for which the “shrunken log2 fold change” value worked out at 0.301.

Turning to RRIRHRPPRLPRPRPRPDRQPRP, the “shrunken log2 fold change” value was -0.135.

RRIRLRPPRLPRPRPRPIVRPRP: the “shrunken log2 fold change” value was -0.151.

Take RRIRERPPRLPRPRPRPCMDPRP: the “shrunken log2 fold change” value was -0.151.

On to RRIRQRPPRLPRPRPRPYYMPRP, for which the “shrunken log2 fold change” value was -0.614.

Turning to RRIRERPPRLPRPRPRPYIWPRP, the “shrunken log2 fold change” value is 0.0553.

For RRIRQRPPRLPRPRPRPQGNPRP, the “shrunken log2 fold change” value was found to be 0.00341.

For the sequence RRIRNRPPRLPRPRPRPFFRPRP, the “shrunken log2 fold change” value was -0.378.

As for RRIRIRPPRLPRPRPRPAFMPRP, the “shrunken log2 fold change” value is -0.3.

Regarding RRIRWRPPRLPRPRPRPYSAPRP, the “shrunken log2 fold change” value was -0.147.

With RRIRHRPPRLPRPRPRPGHDPRP, the “shrunken log2 fold change” value amounted to 0.0104.

Consider RRIRFRPPRLPRPRPRPTDHPRP, for which the “shrunken log2 fold change” value was -0.323.

For the sequence RRIRQRPPRLPRPRPRPDRMPRP, the “shrunken log2 fold change” value is -0.0981.

For RRIRLRPPRLPRPRPRPHRWPRP, the “shrunken log2 fold change” value was -0.0172.

For the sequence RRIRNRPPRLPRPRPRPLFKPRP, the “shrunken log2 fold change” value was -1.08.

With RRIRNRPPRLPRPRPRPDTHPRP, the “shrunken log2 fold change” value was -0.105.

For the sequence RRIRWRPPRLPRPRPRPVFCPRP, the “shrunken log2 fold change” value turned out to be 0.119.

As for RRIRCRPPRLPRPRPRPSVGPRP, the “shrunken log2 fold change” value was 0.0128.

With RRIRNRPPRLPRPRPRPYLTPRP, the “shrunken log2 fold change” value is -0.332.

For RRIRLRPPRLPRPRPRPWVNPRP, the “shrunken log2 fold change” value is -0.271.

With RRIRGRPPRLPRPRPRPLKKPRP, the “shrunken log2 fold change” value amounted to 0.195.

For RRIRDRPPRLPRPRPRPCQIPRP, the “shrunken log2 fold change” value amounted to 0.0759.

For RRIRARPPRLPRPRPRPHMYPRP, the “shrunken log2 fold change” value is -0.149.

Consider RRIRGRPPRLPRPRPRPGNWPRP, for which the “shrunken log2 fold change” value stood at 0.541.

Consider RRIRRRPPRLPRPRPRPRLMPRP, for which the “shrunken log2 fold change” value turned out to be 0.316.

Regarding RRIRTRPPRLPRPRPRPRQKPRP, the “shrunken log2 fold change” value worked out at 0.0911.

As for RRIRERPPRLPRPRPRPIVCPRP, the “shrunken log2 fold change” value is -0.022.

Regarding RRIRKRPPRLPRPRPRPVGIPRP, the “shrunken log2 fold change” value was 0.131.

Consider RRIRMRPPRLPRPRPRPFECPRP, for which the “shrunken log2 fold change” value amounted to 0.0161.

Take RRIRVRPPRLPRPRPRPDDKPRP: the “shrunken log2 fold change” value is -0.446.

RRIRWRPPRLPRPRPRPAGCPRP: the “shrunken log2 fold change” value was determined as 0.28.

Take RRIRPRPPRLPRPRPRPVDHPRP: the “shrunken log2 fold change” value amounted to 0.0611.

As to RRIRQRPPRLPRPRPRPFYSPRP, the “shrunken log2 fold change” value was -0.174.

For RRIRERPPRLPRPRPRPQDMPRP, the “shrunken log2 fold change” value is -0.492.

Turning to RRIRARPPRLPRPRPRPPVSPRP, the “shrunken log2 fold change” value came out at 0.554.

With RRIRSRPPRLPRPRPRPGWRPRP, the “shrunken log2 fold change” value was determined as 0.923.

As for RRIRKRPPRLPRPRPRPDIVPRP, the “shrunken log2 fold change” value was determined as 1.54.

With RRIRFRPPRLPRPRPRPEAPPRP, the “shrunken log2 fold change” value was 0.529.

RRIRKRPPRLPRPRPRPMIAPRP: the “shrunken log2 fold change” value came out at 0.509.

With RRIRNRPPRLPRPRPRPPQMPRP, the “shrunken log2 fold change” value turned out to be 0.234.

For RRIRYRPPRLPRPRPRPTALPRP, the “shrunken log2 fold change” value is -0.0277.

For the sequence RRIRPRPPRLPRPRPRPCHHPRP, the “shrunken log2 fold change” value is -0.536.

Regarding RRIRPRPPRLPRPRPRPFQVPRP, the “shrunken log2 fold change” value is -0.0122.

On to RRIRFRPPRLPRPRPRPVKQPRP, for which the “shrunken log2 fold change” value was -0.0303.

RRIRVRPPRLPRPRPRPAHIPRP: the “shrunken log2 fold change” value is -0.0203.

Regarding RRIRRRPPRLPRPRPRPYKHPRP, the “shrunken log2 fold change” value is -0.89.

Turning to RRIRCRPPRLPRPRPRPNLIPRP, the “shrunken log2 fold change” value is -0.872.

For the sequence RRIRMRPPRLPRPRPRPMTQPRP, the “shrunken log2 fold change” value was determined as 0.22.

With RRIRVRPPRLPRPRPRPCKPPRP, the “shrunken log2 fold change” value was -0.692.

For the sequence RRIRGRPPRLPRPRPRPTKPPRP, the “shrunken log2 fold change” value was 0.0691.

With RRIRERPPRLPRPRPRPLQTPRP, the “shrunken log2 fold change” value stood at 0.22.

On to RRIRGRPPRLPRPRPRPCKWPRP, for which the “shrunken log2 fold change” value is -0.075.

In the case of RRIRERPPRLPRPRPRPRVGPRP, the “shrunken log2 fold change” value is 0.33.

Consider RRIRERPPRLPRPRPRPTHLPRP, for which the “shrunken log2 fold change” value came to 0.229.

For RRIRCRPPRLPRPRPRPKKVPRP, the “shrunken log2 fold change” value was -0.00128.

On to RRIRLRPPRLPRPRPRPAKQPRP, for which the “shrunken log2 fold change” value is 0.0963.

As for RRIRIRPPRLPRPRPRPRYNPRP, the “shrunken log2 fold change” value was -0.588.

Consider RRIRKRPPRLPRPRPRPISWPRP, for which the “shrunken log2 fold change” value was -0.0574.

RRIRVRPPRLPRPRPRPRTYPRP: the “shrunken log2 fold change” value is -0.309.

Turning to RRIRERPPRLPRPRPRPKHDPRP, the “shrunken log2 fold change” value was -0.441.

For the sequence RRIRFRPPRLPRPRPRPAKHPRP, the “shrunken log2 fold change” value was -0.149.

With RRIRIRPPRLPRPRPRPFQVPRP, the “shrunken log2 fold change” value turned out to be 0.0102.

Regarding RRIRPRPPRLPRPRPRPSIYPRP, the “shrunken log2 fold change” value is -0.584.

For RRIRDRPPRLPRPRPRPQHSPRP, the “shrunken log2 fold change” value was -0.312.

In the case of RRIRCRPPRLPRPRPRPSMRPRP, the “shrunken log2 fold change” value was 0.303.

Regarding RRIRQRPPRLPRPRPRPYGHPRP, the “shrunken log2 fold change” value was -0.473.

On to RRIRWRPPRLPRPRPRPKRCPRP, for which the “shrunken log2 fold change” value stood at 0.0577.

As to RRIRVRPPRLPRPRPRPTPVPRP, the “shrunken log2 fold change” value was determined as 0.465.

In the case of RRIRGRPPRLPRPRPRPTMAPRP, the “shrunken log2 fold change” value came to 1.24.

For the sequence RRIRDRPPRLPRPRPRPMAIPRP, the “shrunken log2 fold change” value is 0.00911.

In the case of RRIRIRPPRLPRPRPRPRDDPRP, the “shrunken log2 fold change” value is 0.168.

With RRIRERPPRLPRPRPRPTHFPRP, the “shrunken log2 fold change” value is -0.382.

For RRIRPRPPRLPRPRPRPDHKPRP, the “shrunken log2 fold change” value was -0.334.

In the case of RRIRLRPPRLPRPRPRPWMVPRP, the “shrunken log2 fold change” value is -0.263.

In the case of RRIRKRPPRLPRPRPRPKSRPRP, the “shrunken log2 fold change” value turned out to be 0.296.

On to RRIRNRPPRLPRPRPRPMFFPRP, for which the “shrunken log2 fold change” value was -0.189.
